The source of these data is the RNAGym collection of RNA variant scans (doi:10.1093/molbev/msab373).

B1: Azoarcus group I ribozyme (parent)
chain: GUGCCUUGCGCCGGGAAACCACGCAAGGGAUGGUGUCAAAUUCGGCGAAACCUAAGCGCCCGCCCGGGCGUAUGGCAACGCCGAGCCAAGCUUCGGCGCCUGCGCCGAUGAAGGUGUAGAGACUAGACGGCACCCACCUAAGGCAAACGCUAUGGUGAAGGCAUAGUCCAGGGAGUGGCGAAAGUCACACAAACCGG

Variants of B1 are the subject of this data set. Put plainly: reverse-splicing fitness (ratio to wild type); higher = more active; in vitro selection; Mg2+ level not given. The procedure, abridged: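 An in vitro group I ribozyme library with randomized positions was T7-transcribed and gel-purified. In triplicate, 10 pmol RNA in EPPS pH 7.5 was reacted with 50 pmoles of a 30-nt RNA substrate for 1 h at 37 °C across several added MgCl2 levels (1–48 mM), then stopped with EDTA. Products were reverse transcribed from a substrate-complementary primer, PCR-amplified and sequenced (HiSeq 4000). Fitness is a variant's read proportion after selection over that before, normalised to wild type.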
For GUGCCUUGCGCCGGGAAACCACGCAAGGGAUGGUGUCAAAUUCGGCGAAACCUAAGCGCCCGCCCGGGCGUAUGGCAACGCUGAGCCAAGCUUCGGCGCCUGCGCCGAUGCAGGUGUAGAGACUAGACGGCACCCACCUAAGGCGAACGCUAUGGUGAAGGCAUAGUCUAGGGAGGGGCGAAAGUCACACAAACCGG, the reverse-splicing fitness is 0.00688. Under GUGCCUUGCGCCGGGAAACCACGCAAGGGAUGGUGUCAAAUUCGGCGAAACCUAAGCGCCCGCCCGGGCGUAUGGCAACGCUGAGCCAAGCUUCGGCGCCUGCGCCGAUGUAGGUGUAGCGACUAGACGGCACCCACCUAAGGCGAACGCUAUGGUGAAGGCAUAGUCGAGGGAGGGGCGAAAGUCACACAAACCGG stands 0.00473.

Take GUGCCUUGCGCCGGGAAACCACGCAAGGGAUGGUGUCAAAUUCGGCGAAACCUAAGCGCCCGCCCGGGCGUAUGGCAACGCCGAGCCAAGCUUCGGCGCCUGCGCCGAUGCAGGUGUAGCGACUAGACGGCACCCACCUAAGGCUAACGAUAUGGUGAAGGCAUAGUCCAGGGAGUGGCGAAAGUCACACAAACCGG: the reverse-splicing fitness was determined as 0.0648. Regarding GUGCCUUGCGCCGGGAAACCACGCAAGGGAUGGUGUCAAAUUCGGCGAAACCUAAGCGCCCGCCCGGGCGUAUGGCAACGCCGAGCCAAGCUUCGGCGCCUGCGCCGAUGGAGGUGUAGUGACUAGACGGCACCCACCUAAGGCCAACGCUAUGGUGAAGGCAUAGUCGAGGGAGUGGCGAAAGUCACACAAACCGG, the reverse-splicing fitness was found to be 0.0842. For GUGCCUUGCGCCGGGAAACCACGCAAGGGAUGGUGUCAAAUUCGGCGAAACCUAAGCGCCCGCCCGGGCGUAUGGCAACGCGGAGCCAAGCUUCGGCGCCUGCGCCGAUGAAGGUGUAGGGACUAGACGGCACCCACCUAAGGCAAACGAUAUGGUGAAGGCAUAGUCAAGGGAGGGGCGAAAGUCACACAAACCGG the value was 0.00604; for GUGCCUUGCGCCGGGAAACCACGCAAGGGAUGGUGUCAAAUUCGGCGAAACCUAAGCGCCCGCCCGGGCGUAUGGCAACGCUGAGCCAAGCUUCGGCGCCUGCGCCGAUGAAGGUGUAGCGACUAGACGGCACCCACCUAAGGCUAACGGUAUGGUGAAGGCAUAGUCGAGGGAGUGGCGAAAGUCACACAAACCGG, 0.0059. In the case of GUGCCUUGCGCCGGGAAACCACGCAAGGGAUGGUGUCAAAUUCGGCGAAACCUAAGCGCCCGCCCGGGCGUAUGGCAACGCGGAGCCAAGCUUCGGCGCCUGCGCCGAUGAAGGUGUAGUGACUAGACGGCACCCACCUAAGGCGAACGUUAUGGUGAAGGCAUAGUCAAGGGAGAGGCGAAAGUCACACAAACCGG, the reverse-splicing fitness was 0.00578.

In the case of GUGCCUUGCGCCGGGAAACCACGCAAGGGAUGGUGUCAAAUUCGGCGAAACCUAAGCGCCCGCCCGGGCGUAUGGCAACGCUGAGCCAAGCUUCGGCGCCUGCGCCGAUGUAGGUGUAGCGACUAGACGGCACCCACCUAAGGCAAACGCUAUGGUGAAGGCAUAGUCCAGGGAGAGGCGAAAGUCACACAAACCGG, the reverse-splicing fitness was determined as 0.0144. Regarding GUGCCUUGCGCCGGGAAACCACGCAAGGGAUGGUGUCAAAUUCGGCGAAACCUAAGCGCCCGCCCGGGCGUAUGGCAACGCCGAGCCAAGCUUCGGCGCCUGCGCCGAUGAAGGUGUAGAGACUAGACGGCACCCACCUAAGGCGAACGAUAUGGUGAAGGCAUAGUCUAGGGAGUGGCGAAAGUCACACAAACCGG, the reverse-splicing fitness is 0.0924. As to GUGCCUUGCGCCGGGAAACCACGCAAGGGAUGGUGUCAAAUUCGGCGAAACCUAAGCGCCCGCCCGGGCGUAUGGCAACGCCGAGCCAAGCUUCGGCGCCUGCGCCGAUGGAGGUGUAGUGACUAGACGGCACCCACCUAAGGCAAACGAUAUGGUGAAGGCAUAGUCAAGGGAGCGGCGAAAGUCACACAAACCGG, the reverse-splicing fitness was 0.00292.

For the variant GUGCCUUGCGCCGGGAAACCACGCAAGGGAUGGUGUCAAAUUCGGCGAAACCUAAGCGCCCGCCCGGGCGUAUGGCAACGCUGAGCCAAGCUUCGGCGCCUGCGCCGAUGAAGGUGUAGAGACUAGACGGCACCCACCUAAGGCUAACGUUAUGGUGAAGGCAUAGUCUAGGGAGAGGCGAAAGUCACACAAACCGG, the reverse-splicing fitness was determined as 0.0133. As for GUGCCUUGCGCCGGGAAACCACGCAAGGGAUGGUGUCAAAUUCGGCGAAACCUAAGCGCCCGCCCGGGCGUAUGGCAACGCUGAGCCAAGCUUCGGCGCCUGCGCCGAUGUAGGUGUAGAGACUAGACGGCACCCACCUAAGGCUAACGAUAUGGUGAAGGCAUAGUCAAGGGAGAGGCGAAAGUCACACAAACCGG, the reverse-splicing fitness came out at 0.0123. Turning to GUGCCUUGCGCCGGGAAACCACGCAAGGGAUGGUGUCAAAUUCGGCGAAACCUAAGCGCCCGCCCGGGCGUAUGGCAACGCUGAGCCAAGCUUCGGCGCCUGCGCCGAUGGAGGUGUAGCGACUAGACGGCACCCACCUAAGGCCAACGCUAUGGUGAAGGCAUAGUCGAGGGAGAGGCGAAAGUCACACAAACCGG, the reverse-splicing fitness stood at 0.0164. For the variant GUGCCUUGCGCCGGGAAACCACGCAAGGGAUGGUGUCAAAUUCGGCGAAACCUAAGCGCCCGCCCGGGCGUAUGGCAACGCUGAGCCAAGCUUCGGCGCCUGCGCCGAUGGAGGUGUAGCGACUAGACGGCACCCACCUAAGGCCAACGAUAUGGUGAAGGCAUAGUCUAGGGAGGGGCGAAAGUCACACAAACCGG, the reverse-splicing fitness stood at 0.00393. Take GUGCCUUGCGCCGGGAAACCACGCAAGGGAUGGUGUCAAAUUCGGCGAAACCUAAGCGCCCGCCCGGGCGUAUGGCAACGCUGAGCCAAGCUUCGGCGCCUGCGCCGAUGAAGGUGUAGUGACUAGACGGCACCCACCUAAGGCCAACGCUAUGGUGAAGGCAUAGUCCAGGGAGUGGCGAAAGUCACACAAACCGG: the reverse-splicing fitness was found to be 0.153.
